This note sets out measurements from article PMC12856111.

Among the targets are mFASΔTE S2014A (mouse) (UniProt P19096); mFASΔTE G2054F (mouse) (UniProt P19096); mFASΔTE T2076F (mouse) (UniProt P19096); mFASΔTE Y2027F (mouse) (UniProt P19096).
Experiment in all cases: SEC; Superdex 200 Increase 10/300 GL, 4°C; mFAS samples incubated at 37°C for 1 h beforehand to promote dimerization; oligomeric state read from the elution volume
Test [1] addresses mFASΔTE (metazoan fatty acid synthase lacking the TE domain) (mouse) (UniProt P19096).
The target in test [2] is mFASΔTE S2014A/Y2027F (mouse) (UniProt P19096).

The substance “mFASΔTE S2014A (from UniProt P19096 1-2504) (enzyme)” registered a stoichiometry N with mFASΔTE S2014A (mouse) of 2.

Take “mFASΔTE (metazoan fatty acid synthase lacking the TE domain) (from UniProt P19096 1-2504) (enzyme)”: the stoichiometry N in test [1] is 2.

The substance “mFASΔTE S2014A/Y2027F (from UniProt P19096 1-2504) (enzyme)” came in with a stoichiometry N in test [2] of 2.

“mFASΔTE G2054F (from UniProt P19096 1-2504) (enzyme)” gave a stoichiometry N with mFASΔTE G2054F (mouse) of 2.

Regarding “mFASΔTE T2076F (from UniProt P19096 1-2504) (enzyme)”, the stoichiometry N in the test with mFASΔTE T2076F (mouse) amounted to 2.

The substance “mFASΔTE Y2027F (from UniProt P19096 1-2504) (enzyme)” gave a stoichiometry N with mFASΔTE Y2027F (mouse) of 2.
